Measurements: the DeepSol protein solubility set

experiment: soluble on expression in E. coli; label from the status in PepcDB or PDB records

Row | Sequence | soluble on expression in E. coli
1 | MSLPNRLLITNASIAKMDEPDDGYGLMMHAALLIQDEKIEWLGSVSDIPAGLGDPEELDACGRLLTPALIDCHTHIVHGGNRAREFEMRLEGASYEEIARAGGGIISTVTATRETDEAALLQDALKRADSLIAEGVSLIEIKSGYGLDVETELKMLRVARAIERERSVRVVTSFLGAHAVPKGADADFYIDKVCIPALEAAHKEGLVDAVDGFCEGIAFDTVQMGRLFERARQLDIPVKLHAEQLSNIGGTKLAASYNALSVDHVEYADKTDIAAMAKAGSVAVLLPGAFYTLHETQKPLVEAFRSESVPMAVATDWNPGSSPMGSLLLAMNMSCTLFGLTPVEALAGTTRNAARALGLKDCGIVAPGKRADLAIWDVLEPAELSYRFGVNPLHRRIFGGRLEGHHHHHH | soluble
2 | TPNEMGYLHVIENLTKKRMTPLRPPTEKEAFKGQLSAAVETIESDLEENGLDKYLESAEALLEKYSATDLAALLLKTVAKDPADAVPVKITPERPLPSNKKGFNKNGR | not soluble
3 | MVAIIDASITRFGKRKESLLELAGEVALPLIGKYEIDFVVVSNSYSGEFNSLSGINNLITTYLSVDKVPSIRVDNTSGSGGSAILVAKSLLDSKITKTVLVLGVEKMSEKNTKQVTSVIASLLSPEEKIVGLTLPSLAGLMTKEYMRRYNASREAFALVAVKNHYNGSLNPFAHIQKVVSLEEVLNSPIIADPLTLYEFTPISDGASAIVMVRDEDAYSFTKKPVFI | not soluble
4 | MTAETNYFWLNCGYNRWNHNEPLVGQTALFESGAHFNPSQGFRAFKKAKVGDQVIFYQVQTDTGLLGCGEIISVETGAQNKIRVQFRFNEQLKPLTADYLKRSEALEFRMSNMKETLFNQITAEEFDLISGLGKGEIKIPRYFFLAETEEFEPGNQYTIYTHTYNGIKRNGYHFYTQLEEGDNIIFYNRTKNQSVVGIGEVSKHIHEKPPIPGRTNSTVIEVSYEKDITPITLSTLNKHPKLKNLYFLQENAKQAIASMSQAQYDAIIEMSDNNGLKSPFEMVKKPDMLESEKEEALKPFILLVVDRKEEGLKAANDLLQKANANPVITTGHPDFSEDMLYGKYLPNETGALYYREGFITQLMPKKDKSYLVIDNFNRIDTDIFQTYINVLEGYEVTLPRYNKDGNMIKWSRQKDSFYYFNPNWHIVGITYDSLEEIKEKYSEQFLKYTRIVKVKHD | not soluble
5 | MNVMDTHPDGRAIAHLAERIRAGLIGHEILVERLMTALLTGGHVLIEGAPGLAKTRAVKRLAQGLDGSFARIQCTPDLMPSDLTGTQVFRRQSESFDFVPGPIFHSLVLVDEINRAPPKVQSALLEAMAEGQVTAGGVTRPLPDPFMVVATQNPIEHEGTFPLPEAQLDRFLLHVDLAMPGAEAERAILDLVEGEAREAALPAGRPLELAELRRARAAVAGIHLAPALRDFIVRLVIATRETEGSPLEGLIEHAVSPRGTLALAASARSRALLHGRDHALPEDVEALAPDALAHRLVPSWRATSEGISARGIVARLLPHVRPWLEHHHHHH | not soluble
6 | MGSDKIHHHHHHMKLETIDYRAQDSAQRFVESLRETGFGVLSNHPIDKALVDTIYEEWQAFFNSDEKHDYLFKPETHDGFFPADVSETAKGHTVKDIKEYYHVYPWGRIPDSLRENILRYYQEANALAEELLGWVEAHTPAEVAVNYSIALPKMIENSHKTLLRILHYPPMSGDEELGAIRAAAHEDINLLTVLPAANEPGLQVKAKSGEWLDVPSDFGNLIINIGDMLQEASGGYFPSTTHRVVNPEGADKTRSRISLPLFLHPKPEVVLSERYTADSYLMERLRELGVI | not soluble
7 | MRAMRLVEIGKPLKLEDIPIPKPKGSQVLIKIEAAGVCHSDVHMRQGRFGNLRIVEDLGVKLPVTLGHEIAGRIEEVGDEVVGYSKGDLVAVNPWEGEGNCYYCRIGEEHLCDSPRWLGINYDGAYAEYVLVPHYKYLYKLRRLSAVEAAPLTCSGVTTYRAVRKASLDPSKTLVVIGAGGGLGTMAIQIAKAVSGATIIGVDVREEALEAAKRAGADYVINASSQDPVSEIRRITQGKGADAVIDLNNSEKTLSIYPYVLAKQGKYVMVGLFGADLKYHAPLITLNEVQFIGSLVGNQSDFLGIMSLAEAGKVKPMVTKTMKLEEANEAIDNLENFKAVGRQVLVP | soluble
8 | MGSDKIHHHHHHMKVTIIGAAGQIPHFLIPMLQKQTDAELTLFARNATSRLLDYSKPTVRIVDGDASKSGDVKTAITDADVVFMDFDNPEAVKNVIKVMDQLGKKRLIVAGVLGVYDEVAGAFGKWNNMMIGSGYLPHKQAVTELEKSDLDYTYMRMTWLYDQDGNTNYETQKKGQPLIGAQVTRQAVSQYVIDMIKNPELGIRESNGVVEPNTNFAKPSFY | not soluble
9 | MGSDKIHHHHHHMEKIIEINDSIIQISDLNDRIYIMKLGKDVGELIKHVDSVCNEKKLSKVFAKVSGNKKELFEKNGYICEGKLENYYSNDDAYFMSKFFEESRKISKFSKEAEDVLNYVKTVGVNPHTKIDEKFHLKIANETDAEKLSKHYSKVFKTYPFPIDDPNYILKTMQTNVKYFIIEDNGKIVAASSCEMDIKNKCVEMTDFAVLEEYQKLGLSKYLLYIMEKIMKDNGYRVFYTIARSISYGMNITFKKMGYMYSGTAVNNTNICGNFEDMNFWYKLSE | not soluble
10 | MKLYYSPGACSLSPHIALREAGLNFELVQVDLASKKTASGQDYLEVNPAGYVPCLQLDDGRTLTEGPAIVQYVADQVPGKQLAPANGSFERYHLQQWLNFISSELHKSFSPLFNPASSDEWKNAVRQSLNTRLGQVARQLEHAPYLLGDQLSVADIYLFVVLGWSAYVNIDLSPWPSLQAFQGRVGGREAVQSALRAEGLIKE | soluble
11 | SYDSPDYTDESCTFKISLRNFRSILSWELKNHSIVPTHYTLLYTIMSKPEDLKVVKNCANTTRSFCDLTDEWRSTHEAYVTVLEGFSGNTTLFSCSHNFWLAIDMSFEPPEFEIVGFTNHINVMVKFPSIVEEELQFDLSLVIEEQSEGIVKKHKPEIKGNMSGNFTYIIDKLIPNTNYCVSVYLEHSDEQAVIKSPLKCTLLPPGQESEFS | soluble
12 | MMKNDEQDDVDVVNVPTNIDFQCNLCEYVGKSDRSLSAHKRHRHPRPEGQEDDKKPRGRPKKYEDSPVPLQRVTTKQLLGGRKRPKTIVECVDDSAIRTDKEASRLHGLGIIDEETSLGDYVRRGANYQLMGGSDMNLDGNSMIVGQEVVIDHEEDEENDDSPMLDSIPAGKNLERRKIRKSGRACASIRLSAKNRQISRSSHMRKVHPNEHAERKRNAPGYNSNGTYNCHFPLCQWRGWSRSTRSTHLRKAHPEWRPDDNRVMTVLSCFYCKSSFHTYAQLADHTITHGGLALMISQSFDNKHHFSAWLQQMERVYSVTFERSEFGSDPELQDLHNYVLHCDCVGGRGEQLATDSRAYIDQKHTNFKFSGAYIYQKHNFLKRRHPQLLTRNKNDCCVHLEVREDSEYGPIHVKGTLEHTGHRFGTPLLRMLFEGFTMDHYTTPRSVILMEPLHTNQFQSLREFIEAPSTSTYQNPYFSVDFGDSPEQFSFGYMSDEMQKLWSKYAPGRTITIDSSPLEFGEVDLFQYSVIVTDENYIPKCAMIYVTTDNSRAPHTILRQMKAVEPRPPTIFMVDPSQLWVELIQDLWPTDLDNPESEVTILISEWTLMDYWAAKTEELVKNEFDVFCIVTALRRMLRVEDAHQLYYTIVELFEAFFECGYDGLAEFFDAQLSDMEYFKRWGPLHRTTLTSHAHPTLGASFRILRDWYLNPANMDHDAPRVDQWFSHICQRIEDFNAITNTQTYTLRPLDPPHKFFYTTVEDEEGEEAEHENPFKNPQILMYDDDGDEVVVEEEIIGHEIDGASELQGSELPDEEVIYETYEDYPEYGGHYDLEEEHKMHHNMRLEEEELQQHLHEQQKPEHLSHQTEELGELQDHHHHHHHHLDEDPEATAEGPSEIVEHDDEEEQEDLVDVEMVDDQHEQHEIPAKIPPHRQRLYQKLDPMPVISHELPRSPSRRIRIPTRKIQELDQESVLPPPPRRETTRSVVRSRKRRDRFAELRDCPPEVMRAIAAHAIAYDGRKKEQRPIVYVPRQAKMAMSSTPTAPTPPEDYDGPPGHQMTTILQHQRQAKQEEEEEQWSGEYDDELHEQEHDPATSSPPPSLLPHTGPSEIVHHEEEVHMMLPEEEADLMDDDDQQPCTSASMYR | soluble
13 | MNQWMELADRVLAGAEVTDEEALSILHCPDEDILLLMHGAFHIRKHFYGKKVKLNMIMNAKSGLCPENCGYCSQSAISKAPIESYRMVNKETLLEGAKRAHDLNIGTYCIVASGRGPSNREVDQVVDAVQEIKETYGLKICACLGLLKPEQAKRLKDAGVDRYNHNLNTSQRNHSNITTSHTYDDRVNTVEIAKESGLSPCSGAIIGMKETKQDVIDIAKSLKALDADSIPVNFLHAIDGTPLEGVNELNPLYCLKVLALFRFINPSKEIRISGGREVNLRTLQPLGLYAANSIFVGDYLTTAGQEETEDHKMLSDLGFEVESVEEMKASLSAKSLEHHHHHH | not soluble
14 | MEEVKDDKTYKGFVDRLTLGITRVLENLPGVLDVRFVEKAPAEKRCLLSWEQKNNCALPEDLRDFYLTTDGFMLAWNSKLENEVVPVGCMMINNVAQLRPLIQSNVYCLPNAPTLADLDFDDDIDGSDGPEKPHFDLRSRIFELDSCNGNGKVCLVYKSCSPGVMAQQCEVWFLDRSLFWHYLTPSFTAYYRLMITHLGLPEWQYNFTPYGPSPQAKQWAALYQPLTFHSDPHLDTSSEPFLNKLDPTKAFRGKAKPPTPKKKQPAQVPASGTGTAKGQGLSGRHSVAKR | soluble
15 | MTDQRRNVYFFHKQDQETNEQARSLTQLAEEHGFTVVNQHSDANIIASIGGDGTFLQAVRKTNFRDDCLYVGITKKGKAHLYCDFHSDEREKMVDAMTFEQIEVRKYPLIEVTVDQASPFHCLNEVSIRSSIIKTFVMDVLIDDLHFETFRGDGMIISTPTGSTAYNKSVAGAVVDPLLPCMQVSELASLNNNTYRTLGSPFVLSSDRKLTLRVVQDGNEHPIIGLDNEALSTRNVKTIEIKLSNKKIKTVKLKDNSFWEKVKRTFLLEHHHHHH | not soluble
16 | DDDDEEEDDFVYFNFNKEKEEKNKNSIHPNDFQIYNSLKYKYHPEYQYLNIIYDIMMNGNKQSDRTGVGVLSKFGYIMKFDLSQYFPLLTTKKLFLRGIIEELLWFIRGETNGNTLLNKNVRIWEANGTREFLDNRKLFHREVNDLGPIYGFQWRHFGAEYTNMYDNYENKGVDQLKNIINLIKNDPTSRRILLCAWNVKDLDQMALPPCHILCQFYVFDGKLSCIMYQRSCDLGLGVPFNIASYSIFTHMIAQVCNLQPAQFIHVLGNAHVYNNHIDSLKIQLNRIPYPFPTLKLNPDIKNIEDFTISDFTIQNYVHHEKISMDMAA | soluble
17 | MQAKIAASNTGELDALQQLGFSLVEGEVDLALPVNNASDSGAVVAQETDIPALRQLASAAFAQSRFRAPWYAPDASSRFYAQWIENAVRGTFDHQCLILRAASGDIRGYVSLRELNATDARIGLLAGRGAGAELMQTALNWAYARGKTTLRVATQMGNTAALKRYIQSGANVESTAYWLYR | not soluble
18 | MASMTGGQQMGRDLQVTLYGTIKAGVEVSRVKDAGTYKAQGGKSKTATQIADFGSKIGFKGQEDLGNGMKAIWQLEQKASIAGTNSGWGNRQSFIGLKGGFGTVRAGNLNTVLKDSGDNVNAWESGSNTEDVLGLGTIGRVESREISVRYDSPVFAGFSGSVQYVPRDNANDVDKYKHTKSSRESYHAGLKYENAGFFGQYAGSFAKYADLNTDAERVAVNTANAHPVKDYQVHRVVAGYDANDLYVSVAGQYEAAKNNEVGSIKGKKHEQTQVAATAAYRFGNVTPRVSYAHGFKAKVNGVKDANYQYDQVIVGADYDFSKRTSALVSAGWLKQGKGAGKVEQTASMVGLRHKF | soluble
